In publication PMC7819272 one finds percent binding to DRβ-Arg74-positive cells data, which are given here for two molecules.

Where no end group is shown, it is not given here. The star is where a group is joined. Biotin = O=C1N[C@H]2[C@H](CS[C@H]2CCCCC(=O)*)N1

For the assay, the target named is HLA-DR3 (HLA-DRβ1-Arg74 positive) on the surface of VAVY cells (human (endogenous in VAVY)). Briefly: flow cytometry on cells. For orientation: In flow cytometry, cells or beads pass a laser one at a time.

Biotin-FNGTKLDAVYLNKNKYLTVI [TSHR197–216 peptide, biotinylated] returned a percent binding to DRβ-Arg74-positive cells at 10 μM peptide of 14.7%, a percent binding to DRβ-Arg74-positive cells at 20 μM peptide of 19.4% and a percent binding to DRβ-Arg74-positive cells at 50 μM peptide of 72.9%.
With Biotin-GIFNTGLKMFPDLTKVYST [TSHR132–150 peptide, biotinylated], the percent binding to DRβ-Arg74-positive cells at 10 μM peptide was determined as 5.1%, the percent binding to DRβ-Arg74-positive cells at 20 μM peptide turned out to be 21.7% and the percent binding to DRβ-Arg74-positive cells at 50 μM peptide stood at 51%.
